Residue numbers refer to the chain shown, from its start. Names and notes keep the numbering of the source.
B1: GpH7-B3 variant P329D / GpL16-k0 (antibody, human IgG1)
heavy: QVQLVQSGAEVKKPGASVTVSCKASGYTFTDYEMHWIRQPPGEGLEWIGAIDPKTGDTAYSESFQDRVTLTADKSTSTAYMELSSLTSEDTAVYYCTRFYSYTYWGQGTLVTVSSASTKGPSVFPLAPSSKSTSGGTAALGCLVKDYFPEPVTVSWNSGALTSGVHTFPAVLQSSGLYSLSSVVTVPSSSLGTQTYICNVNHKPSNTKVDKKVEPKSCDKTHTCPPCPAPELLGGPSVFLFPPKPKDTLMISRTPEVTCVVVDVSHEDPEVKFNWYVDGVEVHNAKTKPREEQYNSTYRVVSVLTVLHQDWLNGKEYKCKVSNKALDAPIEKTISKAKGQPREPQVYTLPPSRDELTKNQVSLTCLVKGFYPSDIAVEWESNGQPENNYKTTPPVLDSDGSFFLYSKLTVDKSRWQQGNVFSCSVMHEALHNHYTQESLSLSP
light: DIVMTQSPLSLPVTPGEPASISCQASESLVHSNRNTYLHWYLQKPGQSPQLLIYKVSNRFSGVPDRFSGSGSGTDFTLKISRVEAEDVGVYYCSQNTHVPPTFGQGTKVEIE
notes: Anti-glypican-3 human IgG1 with B3 constant region; position by EU numbering
B2: GpH7-B3 variant P329Y / GpL16-k0 (antibody, human IgG1)
heavy: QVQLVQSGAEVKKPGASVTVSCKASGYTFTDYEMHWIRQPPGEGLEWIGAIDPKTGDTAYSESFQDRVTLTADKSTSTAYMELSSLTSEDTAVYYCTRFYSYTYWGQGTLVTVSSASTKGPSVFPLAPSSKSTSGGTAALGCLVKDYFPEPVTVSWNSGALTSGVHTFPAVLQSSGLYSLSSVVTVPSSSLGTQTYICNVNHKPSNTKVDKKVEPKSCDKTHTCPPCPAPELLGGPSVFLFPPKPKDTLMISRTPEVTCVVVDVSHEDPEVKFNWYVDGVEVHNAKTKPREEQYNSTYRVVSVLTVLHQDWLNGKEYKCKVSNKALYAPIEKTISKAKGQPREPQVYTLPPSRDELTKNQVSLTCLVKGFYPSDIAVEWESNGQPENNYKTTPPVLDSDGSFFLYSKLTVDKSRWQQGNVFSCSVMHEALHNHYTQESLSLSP
light: B1 light
notes: as for B1
B3: GpH7-B3 variant P331R / GpL16-k0 (antibody, human IgG1)
heavy: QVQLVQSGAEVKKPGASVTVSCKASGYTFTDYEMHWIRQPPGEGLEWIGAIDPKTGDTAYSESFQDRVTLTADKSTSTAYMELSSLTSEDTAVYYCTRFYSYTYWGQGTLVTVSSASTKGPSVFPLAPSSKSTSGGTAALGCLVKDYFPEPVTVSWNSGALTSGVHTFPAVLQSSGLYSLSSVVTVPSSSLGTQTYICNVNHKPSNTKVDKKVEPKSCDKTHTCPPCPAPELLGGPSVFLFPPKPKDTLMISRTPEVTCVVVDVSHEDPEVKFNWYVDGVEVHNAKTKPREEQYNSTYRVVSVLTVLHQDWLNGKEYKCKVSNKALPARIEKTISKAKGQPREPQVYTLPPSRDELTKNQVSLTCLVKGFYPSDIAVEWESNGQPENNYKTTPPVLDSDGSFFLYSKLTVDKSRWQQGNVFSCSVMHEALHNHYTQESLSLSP
light: B1 light
notes: as for B1
B4: GpH7-B3 variant P329W / GpL16-k0 (antibody, human IgG1)
heavy: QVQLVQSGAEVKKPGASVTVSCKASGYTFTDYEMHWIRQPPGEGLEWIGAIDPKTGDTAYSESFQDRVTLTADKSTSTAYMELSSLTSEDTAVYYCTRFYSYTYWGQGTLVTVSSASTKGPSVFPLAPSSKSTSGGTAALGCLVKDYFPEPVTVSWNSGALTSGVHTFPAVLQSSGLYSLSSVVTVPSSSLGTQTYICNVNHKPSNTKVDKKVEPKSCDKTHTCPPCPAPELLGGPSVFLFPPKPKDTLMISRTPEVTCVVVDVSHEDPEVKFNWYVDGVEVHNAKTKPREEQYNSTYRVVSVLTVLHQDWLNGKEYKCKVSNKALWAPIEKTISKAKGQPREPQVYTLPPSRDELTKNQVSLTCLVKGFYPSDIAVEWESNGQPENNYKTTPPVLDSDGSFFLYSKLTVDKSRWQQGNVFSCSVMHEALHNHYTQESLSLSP
light: B1 light
notes: as for B1
B5: GpH7-B3 variant P329S / GpL16-k0 (antibody, human IgG1)
heavy: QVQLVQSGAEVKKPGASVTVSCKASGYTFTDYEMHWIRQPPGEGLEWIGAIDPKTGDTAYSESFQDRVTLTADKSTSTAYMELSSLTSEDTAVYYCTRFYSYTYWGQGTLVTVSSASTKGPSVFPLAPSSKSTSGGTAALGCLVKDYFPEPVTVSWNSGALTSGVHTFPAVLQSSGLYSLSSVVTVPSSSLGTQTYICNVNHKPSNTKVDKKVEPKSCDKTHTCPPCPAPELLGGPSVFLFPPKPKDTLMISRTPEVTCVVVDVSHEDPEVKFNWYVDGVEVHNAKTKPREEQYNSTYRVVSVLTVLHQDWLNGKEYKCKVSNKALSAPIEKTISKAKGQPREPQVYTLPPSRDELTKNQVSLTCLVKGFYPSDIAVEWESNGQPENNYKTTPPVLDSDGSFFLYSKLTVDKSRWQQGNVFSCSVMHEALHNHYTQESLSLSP
light: B1 light
notes: as for B1
B6: GpH7-B3 variant P331K / GpL16-k0 (antibody, human IgG1)
heavy: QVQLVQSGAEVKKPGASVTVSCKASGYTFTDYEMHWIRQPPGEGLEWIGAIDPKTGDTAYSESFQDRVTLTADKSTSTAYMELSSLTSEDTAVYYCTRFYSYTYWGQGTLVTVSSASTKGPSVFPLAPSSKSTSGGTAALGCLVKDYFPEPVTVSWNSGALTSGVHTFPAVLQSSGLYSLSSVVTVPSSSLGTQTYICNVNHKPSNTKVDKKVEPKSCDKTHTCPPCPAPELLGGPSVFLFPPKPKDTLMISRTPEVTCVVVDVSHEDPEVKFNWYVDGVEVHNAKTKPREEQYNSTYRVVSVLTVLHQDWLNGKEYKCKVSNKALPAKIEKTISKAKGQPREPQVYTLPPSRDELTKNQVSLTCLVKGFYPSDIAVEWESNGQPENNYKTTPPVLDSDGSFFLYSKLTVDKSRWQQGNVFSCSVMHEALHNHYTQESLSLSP
light: B1 light
notes: as for B1
B7: GpH7-B3 variant P329N / GpL16-k0 (antibody, human IgG1)
heavy: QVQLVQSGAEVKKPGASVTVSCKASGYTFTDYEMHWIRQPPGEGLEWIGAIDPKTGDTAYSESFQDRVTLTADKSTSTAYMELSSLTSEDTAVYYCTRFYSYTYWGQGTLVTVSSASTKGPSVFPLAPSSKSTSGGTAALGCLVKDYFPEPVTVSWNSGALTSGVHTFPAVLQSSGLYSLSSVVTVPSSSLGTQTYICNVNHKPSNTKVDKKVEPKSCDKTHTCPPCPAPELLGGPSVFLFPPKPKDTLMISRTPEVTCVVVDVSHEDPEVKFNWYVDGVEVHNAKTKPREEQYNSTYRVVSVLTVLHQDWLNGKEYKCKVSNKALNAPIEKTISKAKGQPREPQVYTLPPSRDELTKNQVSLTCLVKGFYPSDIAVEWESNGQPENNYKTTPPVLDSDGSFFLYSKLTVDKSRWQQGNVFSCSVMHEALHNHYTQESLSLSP
light: B1 light
notes: as for B1
B8: GpH7-B3 variant P329E / GpL16-k0 (antibody, human IgG1)
heavy: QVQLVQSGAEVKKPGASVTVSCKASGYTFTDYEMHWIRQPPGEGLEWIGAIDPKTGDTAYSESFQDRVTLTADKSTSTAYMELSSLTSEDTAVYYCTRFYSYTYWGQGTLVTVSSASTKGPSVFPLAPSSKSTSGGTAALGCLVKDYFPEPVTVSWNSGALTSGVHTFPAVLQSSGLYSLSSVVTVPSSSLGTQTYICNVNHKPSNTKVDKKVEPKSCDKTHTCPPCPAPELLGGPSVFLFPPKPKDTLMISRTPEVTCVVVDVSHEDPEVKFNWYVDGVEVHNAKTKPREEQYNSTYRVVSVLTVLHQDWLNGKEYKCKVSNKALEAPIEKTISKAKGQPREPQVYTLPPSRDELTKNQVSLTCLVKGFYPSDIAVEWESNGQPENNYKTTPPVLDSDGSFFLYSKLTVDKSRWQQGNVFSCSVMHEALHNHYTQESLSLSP
light: B1 light
notes: as for B1
B9: IL6R-F652/IL6R-L (antibody, human IgG1)
heavy: QVQLQESGPGLVKPSETLSLTCAVSGHSISHDHAWSWVRQPPGEGLEWIGFISYSGITNYNPSLQGRVTISRDNSKNTLYLQMNSLRAEDTAVYYCARSLARTTAMDYWGEGTLVTVSSASTKGPSVFPLAPSSKSTSGGTAALGCLVKDYFPEPVTVSWNSGALTSGVHTFPAVLQSSGLYSLSSVVTVPSSSLGTQTYICNVNHKPSNTKVDKKVEPKSCDKTHTCPPCPAPELLGGDSVFLFPPKPKDTLYISRTPEVTCVVVDVSHEDPEVKFNWYVDGVEVHNAKTKPREEQYNSTYRVVSVLTVLHQDWLNGKEYKCKVSNKALPAPIEKTISKAKGQPREPQVYTLPPSRDELTKNQVSLTCLVKGFYPSDIAVEWESNGQPENNYKTTPPVLDSDGSFFLYSKLTVDKSRWQQGNVFSCSVMHEALHYHYTQKSLSLSP
light: DIQMTQSPSSLSASVGDRVTITCRASQDISSYLNWYQQKPGKAPKLLIYYTSRLHSGVPSRFSGSGSGTDFTFTISSLQPEDIATYYCQQGNTLPYTFGQGTKVEIK
notes: P238D introduced into IL6R-F11 (M252Y/N434Y in IL6R-G1d); also called P238D
B10: IL6R-PD087/IL6R-L (antibody, human IgG1)
heavy: B9 heavy with G239M
light: B9 light
notes: Alterations introduced into IL6R-F11; also called P238D/G237M
B11: IL6R-PD042/IL6R-L (antibody, human IgG1)
heavy: B9 heavy with L236W
light: B9 light
notes: Alterations introduced into IL6R-F11; also called P238D/L234W
B12: IL6R-PD043/IL6R-L (antibody, human IgG1)
heavy: B9 heavy with L236Y
light: B9 light
notes: Alterations introduced into IL6R-F11; also called P238D/L234Y
B13: IL6R-PD081/IL6R-L (antibody, human IgG1)
heavy: B9 heavy with G239E
light: B9 light
notes: Alterations introduced into IL6R-F11; also called P238D/G237E
B14: IL6R-PD094/IL6R-L (antibody, human IgG1)
heavy: B9 heavy with G239W
light: B9 light
notes: Alterations introduced into IL6R-F11; also called P238D/G237W
B15: IL6R-PD082/IL6R-L (antibody, human IgG1)
heavy: B9 heavy with G239F
light: B9 light
notes: Alterations introduced into IL6R-F11; also called P238D/G237F
B16: IL6R-PD095/IL6R-L (antibody, human IgG1)
heavy: B9 heavy with G239Y
light: B9 light
notes: Alterations introduced into IL6R-F11; also called P238D/G237Y
B17: IL6R-PD086/IL6R-L (antibody, human IgG1)
heavy: B9 heavy with G239L
light: B9 light
notes: Alterations introduced into IL6R-F11; also called P238D/G237L
B18: IL6R-PD080/IL6R-L (antibody)
heavy: B9 heavy with G239D
light: B9 light
notes: Alterations introduced into IL6R-F11; also called P238D/G237D
B19: IL6R-PD097/IL6R-L (antibody, human IgG1)
heavy: B9 heavy with S241D
light: B9 light
notes: Alterations introduced into IL6R-F11; also called P238D/S239D
B20: IL6R-PD079/IL6R-L (antibody, human IgG1)
heavy: B9 heavy with G239A
light: B9 light
notes: Alterations introduced into IL6R-F11; also called P238D/G237A

Target: T1, human FcγRIa (human, UniProt P12314 16-292, limits assumed)
T1 construct: Soluble analyte in SPR; also called hFcgRIa; FcgRIa
Test: SPR (Biacore), antibody captured, FcγR analyte, 25 C; normalised to captured antibody, GpH7-B3/GpL16-k0 = 100;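 further: antibodies held on sensor chips through immobilized antigen peptide, Protein A, Protein A/G or Protein L, with HBS-EP+ running buffer and FcγR in solution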
Protocol: (§1) Interaction between each modified antibody and Fcγ receptor prepared in the manner described above was analyzed using the BIACORE™ T100 surface plasmon resonance system (GE Healthcare), BIACORE™ T200 surface plasmon resonance system (GE Healthcare), BIACORE™ A100 surface plasmon resonance system or BIACORE™ 4000 surface plasmon resonance system. HBS-EP+(GE Healthcare) was used for the running buffer, and measurements were carried out at 25° C. The chips used were chips in which antigen peptides, Protein A (Thermo Scientific), Protein A/G (Thermo Scientific) or Protein L (ACTIGEN® protein (Alltech or BioVision) were immobilized on the Series S Sensor Chip CM5 (GE Healthcare) or Series S Sensor Chip CM4 (GE Healthcare) by amine coupling, or chips in which preliminarily biotinylated antigen peptides were allowed to interact and then immobilized on the Series S Sensor Chip SA (certified) (GE Healthcare). The target antibodies were captured on these sensor chips, Fcγ receptor diluted with the running buffer was allowed to interact, followed by measurement of the amount of bound antibody. The amounts bound were compared between antibodies. However, since the amount of Fcγ receptor bound depends on the amount of captured antibody, the values used for comparison were first corrected by dividing the amount of Fcγ receptor bound by the captured amount of each antibody. Through reaction with 10 mM glycine-HCl at pH 1.5, the sensor chips were regenerated by washing off antibody captured on the sensor chips and used repeatedly.
(§2) Binding strength was evaluated according to the following method based on the results of analyzing the interaction with each FcγR. […] That value was then further multiplied by 100, and the resulting value was used as an indicator of relative binding activity to each FcγR.

T1 sequence (P12314 16-292 limits assumed): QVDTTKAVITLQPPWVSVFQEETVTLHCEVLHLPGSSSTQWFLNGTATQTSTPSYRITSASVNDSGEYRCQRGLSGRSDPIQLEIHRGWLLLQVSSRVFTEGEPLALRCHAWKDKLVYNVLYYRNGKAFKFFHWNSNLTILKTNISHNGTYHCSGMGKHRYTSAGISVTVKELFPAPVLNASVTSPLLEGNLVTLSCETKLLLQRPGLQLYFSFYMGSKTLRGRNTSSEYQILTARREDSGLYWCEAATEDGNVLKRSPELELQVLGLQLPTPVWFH

Binder	relative binding activity (parent antibody = 100)
B1	23 % of control
B2	76 % of control
B3	95 % of control
B4	94 % of control
B5	60 % of control
B6	98 % of control
B7	45 % of control
B8	33 % of control

Target: T2, human FcγRIIa(R) (allotype R131) (human, UniProt P12318 36-217)
T2 construct: Soluble analyte in SPR; also called hFcgRIIa(R); FcgRIIaR
T2 chain: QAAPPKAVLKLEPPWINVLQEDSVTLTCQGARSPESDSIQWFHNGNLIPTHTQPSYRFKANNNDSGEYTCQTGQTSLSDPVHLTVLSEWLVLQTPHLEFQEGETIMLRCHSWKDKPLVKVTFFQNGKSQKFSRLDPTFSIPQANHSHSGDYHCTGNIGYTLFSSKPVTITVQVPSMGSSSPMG
Test: as above
Protocol: as §1, §2

Binder	relative binding activity (parent antibody = 100)
B1	1 % of control
B2	-1 % of control
B3	64 % of control
B4	1 % of control
B5	0 % of control
B6	72 % of control
B7	4 % of control
B8	-1 % of control

Target: T3, human FcγRIIa(H) (allotype H131) (human, UniProt P12318 36-217)
T3 construct: Soluble analyte in SPR; also called hFcgRIIa(H); FcgRIIaH
T3 sequence: T2 chain with R133H
Test: as above
Protocol: as §1, §2

Binder	relative binding activity (parent antibody = 100)
B1	-1 % of control
B2	0 % of control
B3	59 % of control
B4	0 % of control
B5	1 % of control
B6	58 % of control
B7	5 % of control
B8	0 % of control

Target: T4, human FcγRIIb (human, UniProt P31994 43-217, limits assumed)
T4 construct: Soluble analyte in SPR; also called hFcgRIIb; FcgRIIb
T4 sequence: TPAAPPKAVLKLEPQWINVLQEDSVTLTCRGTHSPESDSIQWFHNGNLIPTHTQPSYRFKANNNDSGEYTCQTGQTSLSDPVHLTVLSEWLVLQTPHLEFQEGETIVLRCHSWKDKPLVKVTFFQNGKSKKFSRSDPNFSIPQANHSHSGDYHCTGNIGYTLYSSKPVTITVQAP
Test: as above
Protocol: as §1, §2

Binder	relative binding activity (parent antibody = 100)
B1	-2 % of control
B2	-3 % of control
B3	55 % of control
B4	0 % of control
B5	1 % of control
B6	63 % of control
B7	0 % of control
B8	-2 % of control

Target: T5, human FcγRIIIa(F) (allotype F158) (human, UniProt P08637 17-208, limits assumed)
T5 construct: also called hFcgRIIIa(F); FcgRIIIaF
Test: as above
Protocol: as §1, §2

T5 sequence (P08637 other isoform, or with tags, fused parts or gaps limits assumed): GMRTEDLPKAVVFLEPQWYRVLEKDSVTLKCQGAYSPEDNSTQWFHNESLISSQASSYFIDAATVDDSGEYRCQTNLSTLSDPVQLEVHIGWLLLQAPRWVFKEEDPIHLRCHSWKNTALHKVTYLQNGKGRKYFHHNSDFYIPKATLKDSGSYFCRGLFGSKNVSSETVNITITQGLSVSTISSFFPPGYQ

Binder	relative binding activity (parent antibody = 100)
B1	-1 % of control
B2	0 % of control
B3	38 % of control
B4	0 % of control
B5	1 % of control
B6	34 % of control
B7	3 % of control
B8	-1 % of control

Target: T6, human FcγRIIb (human, UniProt P31994 43-217)
T6 construct: also called FcγIIB
T6 sequence: T4 sequence
Test: SPR (Biacore), captured antibody, FcγR as analyte; binding amount divided by that of IL6R-F652/IL6R-L, times 100

Binder	RELATIVE BINDING ACTIVITY FOR FcγRIIb
B9	100 relative (IL6R-F652/IL6R-L = 100)
B10	109 relative (IL6R-F652/IL6R-L = 100)
B11	106 relative (IL6R-F652/IL6R-L = 100)
B12	112 relative (IL6R-F652/IL6R-L = 100)
B13	101 relative (IL6R-F652/IL6R-L = 100)
B14	122 relative (IL6R-F652/IL6R-L = 100)
B15	108 relative (IL6R-F652/IL6R-L = 100)
B16	124 relative (IL6R-F652/IL6R-L = 100)
B17	112 relative (IL6R-F652/IL6R-L = 100)
B18	127 relative (IL6R-F652/IL6R-L = 100)
B19	139 relative (IL6R-F652/IL6R-L = 100)
B20	101 relative (IL6R-F652/IL6R-L = 100)

Target: T7, human FcγRIIa type R (human, UniProt P12318 36-217)
T7 construct: also called FcγRIIaR; Fc γ RIIaR
T7 chain: T2 chain
Test: as above

Binder	RELATIVE BINDING ACTIVITY FOR FcγRIIaR
B9	100 relative (IL6R-F652/IL6R-L = 100)
B10	196 relative (IL6R-F652/IL6R-L = 100)
B11	240 relative (IL6R-F652/IL6R-L = 100)
B12	175 relative (IL6R-F652/IL6R-L = 100)
B13	117 relative (IL6R-F652/IL6R-L = 100)
B14	593 relative (IL6R-F652/IL6R-L = 100)
B15	380 relative (IL6R-F652/IL6R-L = 100)
B16	543 relative (IL6R-F652/IL6R-L = 100)
B17	268 relative (IL6R-F652/IL6R-L = 100)
B18	222 relative (IL6R-F652/IL6R-L = 100)
B19	844 relative (IL6R-F652/IL6R-L = 100)
B20	138 relative (IL6R-F652/IL6R-L = 100)

From US20230257470A1 (published 2023)
